Consider 10 sequences from a protein production outcome set (Wang et al. 2014).

A short description of the series: label from the status in PepcDB records.

Consider “MFFKEIHHVAINASNYQATKNFYVEKLGFEVLRENHRPEKNDIKLDLKLGSQELEIFISDQFPARPSYPEALGLRHLAFKVEHIEEVIAFLNEQGIETEPLRVDDFTGKKMTFFFDPDGLPLELHE”, for which the protein production entry is “not failed”. The result for “MFFLLLTPFNAAASETNSDDATADAKNLSGTNAADTVVSQIIGASVYIEGEIYNNEYATISVTTKNEGDKSSEGHIIVAFPNNEEILSKEGSGDRVDIYPSGSSIETKDGTKIDSSEYLFVDLVKYDWETGKNETLNLKVKPNKGSEEIVYLVRAELMNDATGDYERYPGILSESSDVDQQGWYVYNNSFGVSGDPDLMIEDISWEPENPHENENVTFKVTLKNVGLASSGNCSVKCYLDGNEISFSTVSGLEADSTTSFTFNWVPTSSGSMDLKVVVDSEGQFVEFTEENNEKTGIFKVISYTNSSSPSSPSPGSGSSSSSSSSGGGAGGSPEPASNVEIKELAQQFVSNGNHAKFIFAKNVTSIAYIEFDPKKTVGKTTTIVETLKGKSTLVTELPTGKVYKNTNIWVGNEGTASSENIENAVVGFKVEKTWINSNGVDSSSVKLWAFEDEKWVELPTSQTDEDEDYVYYEADTPGFASFSIMALYPEENTEGTSLPLGSYVEDKDTKAVSETSEEESEVVDSEAGENNSGSMKKGLLAIGMLAAVILAGYVISRKQD” reads “failed”; that for “MFFLSDHDTLISSIEAIGASFAVFEFDPQSVAFELVSCNSRYEDLMGYSSAKALGQPLTTIFPRYIHNPLKEAFIHCKNERIALETEIVLDYKGQERCWRSIVSPIVNSADEKFRIIQTCVEITEKKVLEKQLNLSMKRFEAVVNNAYDGIITIDEQQNVKLFNEAAQSMFGYSEQEIMGQPLTKLLPEKYQAKHHGYVEGFKRSQVDSRPMQTRAAVQGLRKDGSEFAIEVTISKIRIADNVEFTAVIRDISEKNQLLEELILSSRRDPLTELYNRRYFTELLHSEITRSRRFKRGFSLLMLDIDHFKSINDRYGHACGDAALIAFSKAVTNSIREVDTICRWGGEEFLVLLPEIPKVTAMVVAEKIRKNIENLETIYEGDLIKVTVSIGLEYFSGDAIEMSSMINKVDQILYRAKDTGRNKISTEI”, “failed”; that for “MFFSKLFRKDAASCLEKGEKLLAAGRFAEARLSLEDALERLDAHSPEGATTAAVIREKMVVAGNRLAEMNLQEAEHCLKSGEFAKAEEHLNLTLDLADDVTIRDKAVKSFALLEKQIPHVHHHEKKGGCGGCGGSTSQHSENIELEDDGLNDMDRFELLVRPLPGDLPERYADLGEEFAGGYLAAHGGDQMTAEKVFERLLASGESDILLYELAILSHQGGDGRRCETLLRRALALNDTNPLCNLSLVQLLTENGRFTEAVPLLERMVERDILPDQAGMFLGEIYRVQGESDRAIAQFSQLLSTPLKREAAERLVGLLETTGRSQEAALVAKQYLKGCC”, “failed”.

With “MFGAKKNNTKIIEQLEKKCNGLGDILRSIGNTMAVIEFTTDGVILEANQNFLTTMKYSLSEIKGKHHSMFCLPEVVNSSAYSDFWKDLRDGKARSGLFRRIAKGGIDVYLEANYLPISDNNGYVYKIIKFANDITQRHYEMLDLRNTIAAANRSMAIIEFKPDGTIITANENFLRAMDFNIDEIKGKHHSMFCDSNYRHSKDYVQFWEDLREGKFQSGKYIRYGRNNKKVYLEASYNPVKNDDGKIYKVIKFATDISEQVKKDQEKLRLISELAEKNDNLTQDGDRVIENTVSNVQNIADMMSQSSNLVSSLNQQSDEIKSIIQTISDIADQTNLLALNAAIEAARAGEHGRGFAVVADEVRNLAERTGHSVNEITTTINSIRNVTSQVVESIKSGLEDVNQSVELAKEARECMEKIRESSAEVAKAMS”, the protein production entry is on record as “failed”.

For the sequence “MFGLEAIDLARIQFAFTVSFHIIFPAITIGLASYLAVLEGLWLKTNEEVYRDLYHFWSKIFAVNFGMGVVSGLVMAYQFGTNWSHFSDFAGSITGPLLTYEVLTAFFLEAGFLGVMLFGWNRVGPGLHFFATVMVAIGTLISTFWILASNSWMQTPQGFEIVDGRVIPVDWLAVIFNPSFPYRLLHMSVAAFLATAFFVGASAAWHLLRGRDNPAIRKMLSMAMWMALIVAPVQALIGDAHGLNTLEHQPAKIAAMEGHWDNSSGEPTPLILFGWPDMQREETRFKVEIPVLGSLILKHSLTEPIPALKDFPPEDRPNSTVVFWSFRIMAGLGMLMILVGVWSLWLRWRGQDKLFNSKAFLRLTLLMGPSGLIAILAGWFTTEMGRQPWVVYGLMRTADASSAQSVTQMSLTLLTFVVVYFSLFGVGIGYMMRLVRKGPVTHEGRETNPGGAGQKRTPARPLSAAGEGFDEEHDGHAQAADRDQDKRN”, the protein production entry is “failed”. The result for “MFGLVDAVSFYARAEKVFDPSIRHKPVVVLTNNDGCICAVCPIARQLGVPKFVPYFKVKSFLAKHGVVVRSSNYELYADLSERMMNVIARYSDNHYVYSIDESFLHFKNFSCVDNWHEYGHVIRKAVWRETRLPVGVGFGATLTLAKAANHASKKLSGFDGVAVIDDKASRKEILSRMSLTEVWGIGSKLGKRLSILGLKNGWDLANQSPKAMRGQFGVVVERTVNELNGMPCLQWDEIGQDKQEIFSTRSFGQRVTDGHALKAALSSHASIVGAKVRRQGSLIKRLVIFASSSPHDDSYYKKSVIYEFPIATDNILKLVGAISYVFDNIYRQGVSFYRCGVGGVELENSQFQQQDMFSLSVNNPPLMKCYDQINHRYGRGAVEVAIAEKNEKWAMRRNFLSPRSTSNWSEIPKINCLEHHHHHH” reads “failed”; that for “MFHFSLSPRRTGRGARPRARLGAMLALAFLAGGLTAGPGNAAEGAGATAERQYCACMALARSRPDQAFEKAGQWKALGGGVPARHCEAVALLGLKEYGEAARRLEALAEDVKLARGLRVDLLTQAGQAWLAVGDLSRAYANQTTALQLAGARAQSGAPALSSVLPDLYIDRAVTLAQAGRDDEATTDLTKALALQPASVTALVLRASAQRRQGRLTAARADAEAAVKRAPNDAEARLERGDVRLALGDRDGARADWLKVLELAPREGAADAARARIETLDLKVR”, “failed”. Take “MFIGGAIISFLFLFGYMWKEAHSNRIRHVTLSFPHFPDNGPPLTIFFISDIHRRSVSCRMLETVKGKADLVVIGGDLAEKGVPAARVRENVRRLQTVAPVYFVWGNNDDEVDYDLQSLLEEERVYVLKNKAEVWEHGGVPIALIGVGDVSRKEADIARALEHVPPESFRILACHNPAIIARLEDEQHISLVLSGHTHGGQIRLFSFGLYEKGGLKWHGNTALFTSNGYGTTGVPLRLGAPAETHLIKIVPGKLATEKKCLSKTGKTMLEHHHHHH”: the protein production entry is listed as “failed”.

For the sequence “MFKALLPQSKQKLQHAKYFAKKMHQASASDQLQSHWHLQQWWILIAGFFLFGSVLVFAFTRPISSTKIEAEYLKEVDPQIYTLLNGEMLTPPPEVDESLISAAIVEANQLEQQYASQHSETNAPSASENLMHHNLIDTQFVDRKWDKMNPRYKQRLLMVFKIMKERYGYELVLLEGYRSPERQNLLSGNPNTTRARGYQSYHQFGLAADVAFKRNGKVVISERDPWAMRGYQLYGEVAESVGLTWGGRWKSIQDYGHTEYRMPGLRKTKEMAEQLIAEGQLTANAAS”, the protein production result is on record as “failed”.
